Source: patent US20170333570A1 (FORMATION BIOLOGICS, published 2017)

Target: human epidermal growth factor receptor (hEGFR) (human, UniProt P00533 25-1210)
Assay: cell-based or functional assay

B1: 1024-DM1 (antibody, V domains shown)
VH: QVQLQQPGAELVEPGGSVKLSCKASGYTFTSHWMHWVKQRPGQGLEWIGEINPSSGRNNYNEKFKSKATLTVDKSSSTAYMQFSSLTSEDSAVYYCVRYYGYDEAMDYWGQGTSVTVS
VL: DIVMTQAAFSNPVTLGTSASISCRSSKSLLHSNGITYLYWYLQKPGQSPQLLIYQMSNLASGVPDRFSSSGSGTDFTLRISRVEAEDVGVYYCAQNLELPYTFGGGTKLEIKR
modifications: DM1 conjugated through SMCC linker; conjugated residues and chain not stated
- IC50 (nM), cell growth/survival (sulforhodamine B), A549: 24.7 nM
- IC50 (nM), cell growth/survival (sulforhodamine B), NCI-H226: 1.89 nM
- IC50 (nM), cell growth/survival (sulforhodamine B), NCI-H292: 0.09 nM

B2: 992-DM1 (antibody, V domains shown)
VH: EVQLQQPGSELVRPGASVKLSCKASGYTFTSYWMHWVKQRPGQGLEWIGNIYPGSRSTNYDEKFKSKATLTVDTSSSTAYMQLSSLTSEDSAVYYCTRNGDYYVSSGDAMDYWGQGTSVTVS
VL: DIQMTQTTSSLSASLGDRVTISCRTSQDIGNYLNWYQQKPDGTVKLLIYYTSRLHSGVPSRFSGSGSGTDFSLTINNVEQEDVATYFCQHYNTVPPTFGGGTKLEIKR
modifications: DM1 conjugated through SMCC linker; conjugated residues and chain not stated
- IC50 (nM), cell growth/survival (sulforhodamine B), A549: 2.2 nM
- IC50 (nM), cell growth/survival (sulforhodamine B), NCI-H226: 1.07 nM
- IC50 (nM), cell growth/survival (sulforhodamine B), NCI-H292: 0.22 nM
